According to patent US6548641 (MAX PLANCK GESELLSCHAFT ZUR FORDERUNG DER WISSENSCHAFTEN E V, dated 2003):

Target: T1, epidermal growth factor receptor (EGF-R) (UniProt P00533 25-1210)
T1 construct: also called EGF receptor
Assay: co-immunoprecipitation with mAb 108.1 from 293 transfectants, immunoblot with anti-PTP antisera
Protocol: To standardize the experimental parameters, three chimeric RPTKs having EGF-R extracellular domains were tested (HER1-2, EK-R, EP-R) (Seedorf, K. et al., *J. Biol Chem.* 266:12424 (1991)), as was EGF-R itself (FIG. 8).
The precipitates were extensively washed, boiled in SDS sample buffer, and analyzed by 7.5% SDS-PAGE.

binding result: no binding
B1: PTP 1C protein tyrosine phosphatase (mouse) (enzyme)
chain: not shown
notes: Overexpressed transiently in human 293 cells
